The record followed here is patent US20210063414A1, “METHODS FOR PREVENTING AND/OR TREATING BONE LOSS CONDITIONS BY MODULATING IRISIN” (Dana-Farber Cancer Institute, Inc., priority 2018, published 2021).

“Also recorded” adds a separate entry of the source.

Assay [1] concerns sclerostin mRNA in MLO-Y4 cells. Put plainly: Sclerostin mRNA in MLO-Y4 cells, qRT-PCR. The assay is classed as cell-based, mouse. The conditions noted are these: MLO-Y4, irisin 16 hours. How it is done:
Cells were stained with Hoechst 33342 and Eth-D1, and analyzed to determine the percentage of cell death. *: p<0.05, ***: p<0.001 vs 0.3 mM H2O2 treated condition. […] MLO-Y4 cells were seeded and incubated until 60% cell density. The cells were incubated with Freestyle293 medium for 4 hours and were treated with indicated concentrations of irisin for 16 hours. Sclerostin mRNA level was analyzed by qRT-PCR. Cyclophilin was used as a control house-keeping gene.
MLO-Y4 cells were incubated in serum free medium for 3 hours followed by treatment of indicated concentrations of irisin for indicated time (FIG. 6A), or followed by treatment of 0 or 10 nM irisin in the presence of indicated integrin inhibitors or their control peptide for 16 hours (FIG. 6B). Sclerostin mRNA level was analyzed by qPCR.
Certain materials and methods were used to generate the results described herein. […] Cells were stained with Hoechst 33342 (ThermoFisher Scientific, catalog number H3570) and Eth-D1 (ThermoFisher Scientific, catalog number E1169) and analyzed to determine the percentage of cell death using ImageJ. […] Co-precipitated irisin was analyzed by immunoblot analysis against flag tag (Sigma Aldrich, catalog number A8592). […] Sclerostin mRNA level was analyzed by qPCR (FIG. 7A). […]
Background: In qPCR the cycle at which signal appears reflects the starting amount.

In a further assay the target is T1, integrin α11/β1 (Homo sapiens, UniProt P05556+Q9UKX5).
T1 construct: expressed in transfected cells; host or cells: HEK293T
T1 sequence (Q9UKX5 23-1188): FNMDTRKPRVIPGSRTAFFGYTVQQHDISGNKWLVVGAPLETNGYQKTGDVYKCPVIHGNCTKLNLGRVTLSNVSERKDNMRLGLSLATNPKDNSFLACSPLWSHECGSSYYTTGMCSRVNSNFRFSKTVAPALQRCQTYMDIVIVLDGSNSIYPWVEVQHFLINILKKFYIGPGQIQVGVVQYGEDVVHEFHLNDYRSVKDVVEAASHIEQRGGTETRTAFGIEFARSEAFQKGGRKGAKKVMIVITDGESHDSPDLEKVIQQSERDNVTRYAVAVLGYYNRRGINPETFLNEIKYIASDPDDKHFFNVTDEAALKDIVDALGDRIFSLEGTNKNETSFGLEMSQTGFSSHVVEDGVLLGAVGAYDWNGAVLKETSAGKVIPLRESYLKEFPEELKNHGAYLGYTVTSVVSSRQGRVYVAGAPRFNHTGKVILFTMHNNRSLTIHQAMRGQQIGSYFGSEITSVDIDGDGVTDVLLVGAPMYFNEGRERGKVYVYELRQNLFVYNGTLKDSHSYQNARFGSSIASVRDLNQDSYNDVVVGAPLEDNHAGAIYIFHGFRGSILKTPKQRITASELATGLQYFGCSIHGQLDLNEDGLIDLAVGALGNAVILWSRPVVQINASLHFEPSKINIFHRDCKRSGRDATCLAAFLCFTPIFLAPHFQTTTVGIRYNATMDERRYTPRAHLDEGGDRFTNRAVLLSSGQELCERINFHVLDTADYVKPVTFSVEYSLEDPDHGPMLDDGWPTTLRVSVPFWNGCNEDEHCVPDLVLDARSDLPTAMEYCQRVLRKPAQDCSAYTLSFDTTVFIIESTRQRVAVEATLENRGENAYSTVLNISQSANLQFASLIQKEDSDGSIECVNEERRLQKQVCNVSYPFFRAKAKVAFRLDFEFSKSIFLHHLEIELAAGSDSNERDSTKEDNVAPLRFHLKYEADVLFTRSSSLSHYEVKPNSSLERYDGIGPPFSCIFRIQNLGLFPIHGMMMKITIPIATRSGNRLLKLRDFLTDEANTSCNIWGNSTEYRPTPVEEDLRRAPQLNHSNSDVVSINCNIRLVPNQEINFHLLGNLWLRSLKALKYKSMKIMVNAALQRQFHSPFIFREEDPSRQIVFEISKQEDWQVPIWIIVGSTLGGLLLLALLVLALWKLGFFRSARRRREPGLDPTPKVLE
T1 sequence (P05556 21-798): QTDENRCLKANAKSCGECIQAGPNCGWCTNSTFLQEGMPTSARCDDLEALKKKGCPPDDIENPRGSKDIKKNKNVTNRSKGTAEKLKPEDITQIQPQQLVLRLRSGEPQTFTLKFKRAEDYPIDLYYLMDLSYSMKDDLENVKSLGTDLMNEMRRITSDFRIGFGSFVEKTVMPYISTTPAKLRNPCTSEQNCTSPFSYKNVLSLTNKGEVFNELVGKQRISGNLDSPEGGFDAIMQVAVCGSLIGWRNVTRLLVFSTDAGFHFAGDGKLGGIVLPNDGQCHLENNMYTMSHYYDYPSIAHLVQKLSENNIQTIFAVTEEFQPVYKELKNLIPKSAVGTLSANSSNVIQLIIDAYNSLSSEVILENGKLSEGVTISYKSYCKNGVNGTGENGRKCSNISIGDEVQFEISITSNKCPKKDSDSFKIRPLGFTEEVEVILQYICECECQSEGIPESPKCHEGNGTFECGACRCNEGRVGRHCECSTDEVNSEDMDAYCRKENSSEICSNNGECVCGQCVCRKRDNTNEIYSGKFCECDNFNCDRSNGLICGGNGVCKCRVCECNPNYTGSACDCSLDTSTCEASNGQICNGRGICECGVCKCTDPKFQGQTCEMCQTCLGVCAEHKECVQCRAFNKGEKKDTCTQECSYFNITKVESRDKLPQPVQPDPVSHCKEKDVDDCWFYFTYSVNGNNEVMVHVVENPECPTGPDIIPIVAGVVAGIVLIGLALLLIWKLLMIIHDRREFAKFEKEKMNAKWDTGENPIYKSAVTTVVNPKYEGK
The assay can be described thus: FAK phosphorylation in HEK293T cells with forced expression of integrin α11/β1. The assay is classed as cell-based. How it is done:
100 nM irisin was incubated with 5 nM indicated his-tag integrins followed by immunoprecipitation using Ni-NTA agaroses. Precipitated integrins and co-precipitated irisin were analyzed by immunoblot analysis. […] HEK293T cells were seeded and incubated until 50% cell density. The cells were transfected with 0.1 μg plasmids of indicated integrins. After 48 hours, the cells were re-split to indicated dose of vitronectin-coated plates. Cells were incubated with culture medium for 3 hours. Cells were lysed to detect the indicated protein level using immunoblot analysis. FIG. 15C and FIG. 15D show the immunoblot data. Cells were treated and analyzed as FIG. 14B except using plasmids encoding integrin α5/β1 or integrin α11/β1 (FIG. 15C) integrin αV/β1(FIG. 15D).
HEK293T cells were set up for experiments at 1×10^5 cells per well in 6 well plate. On day 2, cells were transiently transfected with the indicated plasmids with FuGENE® 6 reagent (Roche Applied Science) according to the manufacturer's protocol. […]
Cells were harvested in RIPA buffer containing protease-inhibitor cocktail and phosphataseinhibitor cocktail. […] Protein levels were analyzed via western blot using indicated antibody. […] Protein levels were analyzed using western blot against indicated antibody.

B1: irisin: secreted cleaved form of FNDC5; recombinant human/mouse irisin with C-terminal his tag produced in HEK293 cells (protein)
chain: DSPSAPVNVTVRHLKANSAVVSWDVLEDEVVIGFAISQQKKDVRMLRFIQEVNTTTRSCALWDLEEDTEYIVHVQAISIQGQSPASEPVLFKTPREAEKMASKNKDEVTMKE
modifications: left off: small tags and cut ends
notes: secreted cleaved form of FNDC5; recombinant human/mouse irisin with C-terminal his tag produced in HEK293 cells
As for B1, in assay [1], the “sclerostin mRNA level” value was “increased; also recorded: raised the mRNA level of sclerostin in the osteocyte cultures in a dose-dependent manner”. The “phosphorylation of FAK upon irisin treatment” value with integrin α11/β1 is “little phosphorylation of FAK above background”.
